B1: Tyrosine-protein phosphatase non-receptor type 22 (Homo sapiens), Q9Y2R2 (parent)
chain: MDQREILQKFLDEAQSKKITKEEFANEFLKLKRQSTKYKADKTYPTTVAEKPKNIKKNRYKDILPYDYSRVELSLITSDEDSSYINANFIKGVYGPKAYIATQGPLSTTLLDFWRMIWEYSVLIIVMACMEYEMGKKKCERYWAEPGEMQLEFGPFSVSCEAEKRKSDYIIRTLKVKFNSETRTIYQFHYKNWPDHDVPSSIDPILELIWDVRCYQEDDSVPICIHCSAGCGRTGVICAIDYTWMLLKDGIIPENFSVFSLIREMRTQRPSLVQTQEQYELVYNAVLELFKRQMDVIRDKHSGTESQAKHCIPEKNHTLQADSYSPNLPKSTTKAAKMMNQQRTKMEIKESSSFDFRTSEISAKEELVLHPAKSSTSFDFLELNYSFDKNADTTMKWQTKAFPIVGEPLQKHQSLDLGSLLFEGCSNSKPVNAAGRYFNSKVPITRTKSTPFELIQQRETKEVDSKENFSYLESQPHDSCFVEMQAQKVMHVSSAELNYSLPYDSKHQIRNASNVKHHDSSALGVYSYIPLVENPYFSSWPPSGTSSKMSLDLPEKQDGTVFPSSLLPTSSTSLFSYYNSHDSLSLNSPTNISSLLNQESAVLATAPRIDDEIPPPLPVRTPESFIVVEEAGEFSPNVPKSLSSAVKVKIGTSLEWGGTSEPKKFDDSVILRPSKSVKLRSPKSELHQDRSSPPPPLPERTLESFFLADEDCMQAQSIETYSTSYPDTMENSTSSKQTLKTPGKSFTRSKSLKILRNMKKSICNSCPPNKPAESVQSNNSSSFLNFGFANRFSKPKGPRNPPPTWNI
partner: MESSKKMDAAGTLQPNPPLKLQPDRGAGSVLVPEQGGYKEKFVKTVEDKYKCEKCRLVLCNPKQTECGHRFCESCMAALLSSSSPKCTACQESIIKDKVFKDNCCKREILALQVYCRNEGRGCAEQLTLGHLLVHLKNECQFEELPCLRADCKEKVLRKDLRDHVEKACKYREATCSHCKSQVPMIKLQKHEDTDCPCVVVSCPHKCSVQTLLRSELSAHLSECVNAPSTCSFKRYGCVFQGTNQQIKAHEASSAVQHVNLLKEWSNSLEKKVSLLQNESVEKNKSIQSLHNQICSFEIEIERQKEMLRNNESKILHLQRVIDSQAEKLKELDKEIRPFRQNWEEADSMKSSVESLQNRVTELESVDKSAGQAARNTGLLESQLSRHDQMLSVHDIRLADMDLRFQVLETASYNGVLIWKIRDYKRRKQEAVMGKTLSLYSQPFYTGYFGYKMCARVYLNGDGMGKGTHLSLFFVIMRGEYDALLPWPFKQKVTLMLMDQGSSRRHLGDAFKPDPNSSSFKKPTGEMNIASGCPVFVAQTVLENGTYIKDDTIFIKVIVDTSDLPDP

The variants in the test derive from B1. Conditions: with traf3_mouse Traf3, Q60803.
With R620W, the “effect of a mutation on the interaction” value is reported as “decreasing interaction strength”.

Source of the values: IntAct's records for PubMed 23871208.
